Source: patent US5677146, “Human amyloid protein precursor homolog and kunitz-type inhibitor” (Zymogenetics, Inc., dated 1997)

Assays:
[1] = biological target: recombinant human activated protein C (5 nM), Novo Nordisk A/S (human, UniProt P04070); test: cell-based or functional assay
[2] = biological target: T1, human Factor XIIa (30 nM) (human, UniProt P00748); test: cell-based or functional assay
T1 sequence 1: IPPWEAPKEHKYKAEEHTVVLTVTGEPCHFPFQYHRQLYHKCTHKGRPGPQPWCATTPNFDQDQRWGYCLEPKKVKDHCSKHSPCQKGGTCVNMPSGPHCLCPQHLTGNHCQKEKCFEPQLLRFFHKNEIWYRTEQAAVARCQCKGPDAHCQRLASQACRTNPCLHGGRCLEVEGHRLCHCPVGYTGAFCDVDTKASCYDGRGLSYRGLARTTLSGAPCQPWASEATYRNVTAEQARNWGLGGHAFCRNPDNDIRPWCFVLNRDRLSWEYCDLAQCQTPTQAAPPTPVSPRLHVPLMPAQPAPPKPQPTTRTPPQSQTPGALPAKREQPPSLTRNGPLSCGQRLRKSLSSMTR
T1 sequence 2: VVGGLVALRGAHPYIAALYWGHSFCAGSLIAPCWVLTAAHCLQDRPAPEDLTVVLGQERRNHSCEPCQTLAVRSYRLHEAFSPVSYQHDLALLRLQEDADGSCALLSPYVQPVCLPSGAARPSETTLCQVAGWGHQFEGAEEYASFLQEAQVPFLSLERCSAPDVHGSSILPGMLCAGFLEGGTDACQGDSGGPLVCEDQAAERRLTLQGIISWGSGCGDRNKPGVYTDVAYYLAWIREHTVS

human Factor XIa (1 nM) = human Factor XIa (1 nM) (human, UniProt P03951); test: cell-based or functional assay
human Factor Xa (3 nM) = human Factor Xa (3 nM) (human, UniProt P00742); test: cell-based or functional assay
[3] = biological target: recombinant human Factor VIIa (300 nM), Novo Nordisk A/S (human, UniProt P08709); test: cell-based or functional assay
bovine trypsin = bovine trypsin (bovine, UniProt P00760); test: affinity chromatography of yeast supernatant on bovine trypsin coupled to CNBr-activated Sepharose

% Inhibition [1]: 1%
% Inhibition [2]: 8%
% Inhibition (human Factor XIa (1 nM)): 100%
% Inhibition (human Factor Xa (3 nM)): 29%
% Inhibition [3]: 7%
binding result (bovine trypsin): binds
B1: Kunitz-type inhibitor domain of the amyloid protein precursor (other)
chain: EVCSEQAETGPCRAMISRWYFDVTEGKCAPFFYGGCGGNRNNFDTEEYCMAVCGSA
